This data set deals with the molecule itself. As to the kind of experiment: crystal structure; three crystal forms (P2(1)2(1)2, P2(1), C2) at 2.5, 2.9 and 2.3 Å; co-crystallised with 50 mM NAD+ with or without 10 mM TMABA, PEG 4000, 0.1 M sodium citrate pH 5.6; apoform seen; tetramer as dimer-of-dimers.

B1: human ALDH9A1 (enzyme, UniProt P49189 1-494, looked up)
chain: MSTGTFVVSQPLNYRGGARVEPADASGTEKAFEPATGRVIATFTCSGEKEVNLAVQNAKAAFKIWSQKSGMERCRILLEAARIIREREDEIATMECINNGKSIFEARLDIDISWQCLEYYAGLAASMAGEHIQLPGGSFGYTRREPLGVCVGIGAWNYPFQIASWKSAPALACGNAMVFKPSPFTPVSALLLAEIYSEAGVPPGLFNVVQGGAATGQFLCQHPDVAKVSFTGSVPTGMKIMEMSAKGIKPVTLELGGKSPLIIFSDCDMNNAVKGALMANFLTQGQVCCNGTRVFVQKEILDKFTEEVVKQTQRIKIGDPLLEDTRMGPLINRPHLERVLGFVKVAKEQGAKVLCGGDIYVPEDPKLKDGYYMRPCVLTNCRDDMTCVKEEIFGPVMSILSFDTEAEVLERANDTTFGLAAGVFTRDIQRAHRVVAELQAGTCFINNYNVSPVELPFGGYKKSGFGRENGRVTIEYYSQLKTVCVEMGDVESAF
notes: Human ALDH9A1, a protein of 494 amino acids; the ORF was amplified with gene-specific primers and ligated into pCDFDuet (BamHI, XhoI); Monomer of 55.4 kDa including the His-tag; cloning into the BamHI site of pCDFDuet would place a His6 tag at the N-terminus (surmised); Residues 232-256 are disordered in the crystal structures; also called HsALDH9A1; TMABALDH; source: E. coli (T7 express; …)
What is called stoichiometry N is the number of molecules, sites or subunits per partner or assembly. As to B1, the “stoichiometry N” value worked out at 4.

The record behind these values is publication PMC6487263, “Kinetic and structural analysis of human ALDH9A1” (Bioscience Reports, 2019).
